Substitutions are numbered along the chain they refer to. Names and notes keep the numbering of the source. Where no end group is shown, it is not given here.
T1: Mtw1-Nnf1 heterodimer (MN) (S. cerevisiae, UniProt P39731 1-289; P47149 1-201)
T1 construct: Mtw1, S. cerevisiae; Nnf1, S. cerevisiae; also called Mtw1/Nnf1 dimer; MN complex; source: E. coli BL21 (DE3), purified (HisTrap, Q flow-through, SEC); not shown: His6, N-terminal, kept
T1 sequence (looked up) 1: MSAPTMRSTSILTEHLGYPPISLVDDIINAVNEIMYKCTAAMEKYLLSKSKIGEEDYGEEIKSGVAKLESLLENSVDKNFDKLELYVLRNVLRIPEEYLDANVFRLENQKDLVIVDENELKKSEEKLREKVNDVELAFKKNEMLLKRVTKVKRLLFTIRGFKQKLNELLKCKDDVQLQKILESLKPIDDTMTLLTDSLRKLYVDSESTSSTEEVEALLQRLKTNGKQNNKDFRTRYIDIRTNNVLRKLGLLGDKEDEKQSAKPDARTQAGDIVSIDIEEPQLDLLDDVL
T1 sequence (looked up) 2: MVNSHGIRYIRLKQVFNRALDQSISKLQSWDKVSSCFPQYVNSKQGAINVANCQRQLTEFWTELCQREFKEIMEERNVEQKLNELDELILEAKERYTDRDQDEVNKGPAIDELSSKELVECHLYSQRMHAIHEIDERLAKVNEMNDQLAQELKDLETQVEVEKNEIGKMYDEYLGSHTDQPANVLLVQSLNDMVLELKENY

B1: Ame1-N peptide (aa 1-20) (peptide, UniProt P38313 1-20, looked up)
peptide: MDRDTKLAFRLRGSHSRRTD
notes: Ame1 (CENP-U homolog), S. cerevisiae, residues 1-20; also called Ame1^1-20; Ame1_1-20
B2: Mtw1‐5A: Mtw1 D25A D81A K82A E84A Y86A, interface I (protein, UniProt P39731 1-289, looked up, variant D25A D81A K82A E84A Y86A)
Kinetochore-associated …: T1 sequence (looked up) 1 with D25A, D81A, K82A, E84A, Y86A
B3: Mtw1-8A: Mtw1 D25A N32A Y36A E73A D81A K82A E84A Y86A, interface I+II (protein, UniProt P39731 1-289, looked up, variant D25A N32A Y36A E73A D81A K82A E84A Y86A)
Kinetochore-associated …: T1 sequence (looked up) 1 with D25A, N32A, Y36A, E73A, D81A, K82A, E84A, Y86A
B4: Mtw1‐3A: Mtw1 E73A N32A Y36A, interface II (protein, UniProt P39731 1-289, looked up, variant E73A N32A Y36A)
Kinetochore-associated …: T1 sequence (looked up) 1 with N32A, Y36A, E73A
B5: Mif2^1-41 peptide (peptide, UniProt P35201 1-41, looked up)
peptide: MDYMKLGLKSRKTGIDVKQDIPKDEYSMENIDDFFKDDETS
notes: Mif2, S. cerevisiae, residues 1-41, unlabeled, used in ITC; also called Mif2-N
B6: FITC-Mif2^1-41 (peptide, UniProt P35201 1-41, looked up)
peptide: B5 peptide
modifications: also: FITC label (position not given here)
notes: Mif2, S. cerevisiae, residues 1-41; also called Mif2-N (FITC-labeled N-terminal Mif2 peptide)

Experiments:
[1] = target: T1, Mtw1-Nnf1 heterodimer (MN); experiment: ITC; peptide (Mif2 1-41 250 μM or Ame1 1-20 800 μM) titrated into 25 μM MN; 30 mM Hepes pH 7.5, 150 mM NaCl, 1 mM TCEP, 25°C; one set of binding sites; average of 3 or 4 experiments; settings: both partners purified
Ame1‐Okp1 (AO) complex = experiment: Analytical SEC of Mtw1c wild-type and mutants with Ame1-Okp1 (AO); type: binding, budding yeast; settings: 10 μM each
Protocol: Figure 3 Analysis of Mtw1 interface mutants in vivo • Structure of the Mtw1c head I bound to Mif2 and list of key residues constituting interface I (Mif2 binding) and interface II (putative Ame1 binding) from Dimitrova et al. • Analysis of these Mtw1 mutants in vivo using the anchor‐away technique. Mtw1‐FRB strains containing RPL13‐FKBP12 for cytoplasmic anchoring and additionally harboring the indicated rescue alleles were plated in serial dilution on YEPD or YEPD + rapamycin plates incubated at 30°C. • Tetrad analysis of Mtw1‐wt or mutants. […]
The GST pulldown experiment was performed using BSA‐preblocked GSH Sepharose beads. […] Beads were washed twice in pulldown buffer, before Laemmli sample buffer was added to the beads (GST pulldown) or proteins were eluted in pulldown buffer supplemented with 1 mg/ml Flag peptide before addition of Laemmli sample buffer (Flag pulldown) and samples were analyzed on a Coomassie Brilliant Blue‐stained SDS–PAGE gel or Western blotting. […] Elution of proteins was monitored at 280 nm. 100 μl fractions were collected and analyzed by SDS–PAGE and Coomassie Brilliant Blue staining or Western blotting. […] After several washes with lysis buffer, proteins were eluted with 0.2 mg/ml 3xFlag peptide in lysis buffer, and fractions were analyzed by Western blotting. […]

[2] = system: hemizygous Mtw1 deletion strain; experiment: Tetrad analysis, Mtw1 alleles; type: cell-based, budding yeast; settings: Mtw1 rescue construct only source of Mtw1
Protocol: Figure 3 Analysis of Mtw1 interface mutants in vivo • Structure of the Mtw1c head I bound to Mif2 and list of key residues constituting interface I (Mif2 binding) and interface II (putative Ame1 binding) from Dimitrova et al. • Analysis of these Mtw1 mutants in vivo using the anchor‐away technique. Mtw1‐FRB strains containing RPL13‐FKBP12 for cytoplasmic anchoring and additionally harboring the indicated rescue alleles were plated in serial dilution on YEPD or YEPD + rapamycin plates incubated at 30°C. • Tetrad analysis of Mtw1‐wt or mutants. Surviving spores in which the Mtw1‐wt or mutant rescue construct was the only source of Mtw1 are indicated in pink circles. • Western blotting confirming the expression of Mtw1‐6x‐Flag wt or mutant proteins in the Mtw1‐FRB strain background. • Analytical SEC runs and accompanying SDS–PAGE of Mtw1c‐wt or Mtw1c‐5A mutant (blue), AO (gray), or a stoichiometric combination of both complexes (green) at 10 μM each. Boxes indicate corresponding fractions in left and right panels.
The inability of these alleles to support growth was not due to lack of protein expression, although the steady‐state level was reduced compared to the wild‐type as shown by Western blotting (Fig 3D). We additionally confirmed that Mtw1 interface I mutants indeed confer a lethal phenotype by introducing the respective mutations into a hemizygous Mtw1 deletion strain and performing tetrad dissection. […] The more severe phenotype of Mtw1‐3A in the FRB system compared to tetrad dissection might be due to the additional mutations in the complex genetic background of the anchor‐away strain, which might make it more sensitive to the Mtw1‐3A mutation.
Serial fourfold dilutions of overnight cultures were prepared on 96‐well plates in minimal medium starting from OD600 of 0.6. The dilutions were spotted on YPD medium with and without rapamycin or on YP‐glucose and YP‐galactose and grown at 30°C for 3 days. […]

[3] = target: T1, Mtw1-Nnf1 heterodimer (MN); experiment: fluorescence polarisation; 0.1 μM FITC-Mif2 1-41, MN added from 0 to 4 μM; 30 mM Hepes pH 7.5, 150 mM NaCl, 1 mM TCEP, 23°C; one set of binding sites; triplicates; settings: both partners purified

Molecule	Kd [1]	interaction of Mtw1c with AO, SEC (Ame1‐Okp1 (AO) complex)	viability of haploid spores [2]	further results
B1	12.5 µM			
B2		no longer able to interact efficiently with AO	inviable	
B3			inviable	
B4		abolish AOc binding	viable, albeit slow‐growing	
B5	1.17 µM			
B6				Kd [3]: 0.38 µM
